The text below walks through data of paper PMC7118133, “Dual functions of Aire CARD multimerization in the transcriptional regulation of T cell tolerance” (Nature Communications, 2020).

Substitutions are numbered along the chain they refer to. Names may count otherwise.

Data set [1] deals with the molecule itself. Nature of the data set: negative-stain electron microscopy; filament formation of purified mAire CARD variants after cleavage of the NusA tag with HRV 3C (4 °C, 16 h); diluted in TNE buffer (100 mM Tris pH 8, 50 mM NaCl, 10 mM EDTA) to ~50–200 µg/ml, uranyl formate stain; WT in Fig. 1b also denatured and refolded.
Data set [2] concerns the molecule itself. Nature of the data set: negative-stain electron microscopy; filament formation of purified hAire CARD variants refolded from 6 M GdHCl by dialysis (20 mM HEPES pH 7.5, 1 M KCl, 5 mM βME, 16 h, 4 °C) and kept at 4 °C for another 24 h; diluted in TNE buffer to ~50–200 µg/ml, uranyl formate stain.

B1: mouse Aire (mAire) CARD, wild type (domain or fragment, UniProt Q9Z0E3 1-105, looked up)
chain: MAGGDGMLRRLLRLHRTEIAVAIDSAFPLLHALADHDVVPEDKFQETLRLKEKEGCPQAFHALLSWLLTRDSGAILDFWRILFKDYNLERYSRLHSILDGFPKDV
notes: Autoimmune Regulator (Aire), mouse, CARD, aa 1-105, subcloned into pET50; Forms filaments after the NusA tag is cleaved off at the 3C site; also called WT mAire CARD; source: E. coli BL21(DE3), co-expressed with GroEL/ES + trigger factor, purified (Ni-NTA); tag cleaved with HRV 3C protease; not shown: His6-NusA-His6, N-terminal, cleaved
As to B1, in data set [1], the binding result is “binds”.

B2: mouse Aire (mAire) CARD K53A/E54A (domain or fragment, UniProt Q9Z0E3 1-105, looked up)
chain: B1 chain with K53A, E54A
notes: Autoimmune Regulator (Aire), mouse, CARD, aa 1-105, subcloned into pET50; source: E. coli BL21(DE3), co-expressed with GroEL/ES + trigger factor, purified (Ni-NTA; tag cleaved with HRV 3C protease); not shown: His6-NusA-His6, N-terminal, cleaved
As for B2, the binding result in data set [1] was “binds”.

B3: mouse Aire (mAire) CARD K51A/E52A (domain or fragment, UniProt Q9Z0E3 1-105, looked up)
chain: B1 chain with K51A, E52A
notes: as for B2
As to B3, the binding result in data set [1] is listed as “binds”.

B4: mouse Aire (mAire) CARD R70A/D71A (domain or fragment, UniProt Q9Z0E3 1-105, looked up)
chain: B1 chain with R70A, D71A
notes: Autoimmune Regulator (Aire), mouse, CARD, aa 1-105, subcloned into pET50; The results print R70A/D71A, the methods R70A/R71A; also called R70A/R71A (so printed in the methods); source: E. coli BL21(DE3), co-expressed with GroEL/ES + trigger factor, induced at 25 °C for 4 h, purified (Ni-NTA; tag cleaved with HRV 3C protease); not shown: His6-NusA-His6, N-terminal, cleaved
With B4, the binding result in data set [1] is reported as “binds”.

B5: human Aire (hAire) CARD, wild type (domain or fragment, UniProt O43918 1-106, looked up)
chain: MATDAALRRLLRLHRTEIAVAVDSAFPLLHALADHDVVPEDKFQETLHLKEKEGCPQAFHALLSWLLTQDSTAILDFWRVLFKDYNLERYGRLQPILDSFPKDVDL
notes: Autoimmune Regulator (Aire), human, CARD, aa 1-106, subcloned into pET47; Construct His6-3C-hAire CARD; also called WT hAire CARD
Take B5: in data set [2], the binding result is “binds”.
